From paper PMC3369541 (Methods in Molecular Biology (Clifton, N.j.), 2012)

Biological target: T1, FUS1 peptide (wild-type PDZ protein-binding motif)
T1 peptide: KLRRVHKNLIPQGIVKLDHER
Assay: ProteinChip array with SELDI-TOF mass spectrometry

binding result: binds
Binder: LGILYILQTLE [Apaf1 peptide (PDZ protein-binding motif)]
